Molecular target: LRRK2 (wild type, transiently overexpressed; tagged construct not told for the experiment) (UniProt Q5S007 1-2527)
Test: cell-based or functional assay

LRRK2 (wild type, transiently overexpressed; tagged construct not told for the experiment), sequence (Q5S007 whole entry): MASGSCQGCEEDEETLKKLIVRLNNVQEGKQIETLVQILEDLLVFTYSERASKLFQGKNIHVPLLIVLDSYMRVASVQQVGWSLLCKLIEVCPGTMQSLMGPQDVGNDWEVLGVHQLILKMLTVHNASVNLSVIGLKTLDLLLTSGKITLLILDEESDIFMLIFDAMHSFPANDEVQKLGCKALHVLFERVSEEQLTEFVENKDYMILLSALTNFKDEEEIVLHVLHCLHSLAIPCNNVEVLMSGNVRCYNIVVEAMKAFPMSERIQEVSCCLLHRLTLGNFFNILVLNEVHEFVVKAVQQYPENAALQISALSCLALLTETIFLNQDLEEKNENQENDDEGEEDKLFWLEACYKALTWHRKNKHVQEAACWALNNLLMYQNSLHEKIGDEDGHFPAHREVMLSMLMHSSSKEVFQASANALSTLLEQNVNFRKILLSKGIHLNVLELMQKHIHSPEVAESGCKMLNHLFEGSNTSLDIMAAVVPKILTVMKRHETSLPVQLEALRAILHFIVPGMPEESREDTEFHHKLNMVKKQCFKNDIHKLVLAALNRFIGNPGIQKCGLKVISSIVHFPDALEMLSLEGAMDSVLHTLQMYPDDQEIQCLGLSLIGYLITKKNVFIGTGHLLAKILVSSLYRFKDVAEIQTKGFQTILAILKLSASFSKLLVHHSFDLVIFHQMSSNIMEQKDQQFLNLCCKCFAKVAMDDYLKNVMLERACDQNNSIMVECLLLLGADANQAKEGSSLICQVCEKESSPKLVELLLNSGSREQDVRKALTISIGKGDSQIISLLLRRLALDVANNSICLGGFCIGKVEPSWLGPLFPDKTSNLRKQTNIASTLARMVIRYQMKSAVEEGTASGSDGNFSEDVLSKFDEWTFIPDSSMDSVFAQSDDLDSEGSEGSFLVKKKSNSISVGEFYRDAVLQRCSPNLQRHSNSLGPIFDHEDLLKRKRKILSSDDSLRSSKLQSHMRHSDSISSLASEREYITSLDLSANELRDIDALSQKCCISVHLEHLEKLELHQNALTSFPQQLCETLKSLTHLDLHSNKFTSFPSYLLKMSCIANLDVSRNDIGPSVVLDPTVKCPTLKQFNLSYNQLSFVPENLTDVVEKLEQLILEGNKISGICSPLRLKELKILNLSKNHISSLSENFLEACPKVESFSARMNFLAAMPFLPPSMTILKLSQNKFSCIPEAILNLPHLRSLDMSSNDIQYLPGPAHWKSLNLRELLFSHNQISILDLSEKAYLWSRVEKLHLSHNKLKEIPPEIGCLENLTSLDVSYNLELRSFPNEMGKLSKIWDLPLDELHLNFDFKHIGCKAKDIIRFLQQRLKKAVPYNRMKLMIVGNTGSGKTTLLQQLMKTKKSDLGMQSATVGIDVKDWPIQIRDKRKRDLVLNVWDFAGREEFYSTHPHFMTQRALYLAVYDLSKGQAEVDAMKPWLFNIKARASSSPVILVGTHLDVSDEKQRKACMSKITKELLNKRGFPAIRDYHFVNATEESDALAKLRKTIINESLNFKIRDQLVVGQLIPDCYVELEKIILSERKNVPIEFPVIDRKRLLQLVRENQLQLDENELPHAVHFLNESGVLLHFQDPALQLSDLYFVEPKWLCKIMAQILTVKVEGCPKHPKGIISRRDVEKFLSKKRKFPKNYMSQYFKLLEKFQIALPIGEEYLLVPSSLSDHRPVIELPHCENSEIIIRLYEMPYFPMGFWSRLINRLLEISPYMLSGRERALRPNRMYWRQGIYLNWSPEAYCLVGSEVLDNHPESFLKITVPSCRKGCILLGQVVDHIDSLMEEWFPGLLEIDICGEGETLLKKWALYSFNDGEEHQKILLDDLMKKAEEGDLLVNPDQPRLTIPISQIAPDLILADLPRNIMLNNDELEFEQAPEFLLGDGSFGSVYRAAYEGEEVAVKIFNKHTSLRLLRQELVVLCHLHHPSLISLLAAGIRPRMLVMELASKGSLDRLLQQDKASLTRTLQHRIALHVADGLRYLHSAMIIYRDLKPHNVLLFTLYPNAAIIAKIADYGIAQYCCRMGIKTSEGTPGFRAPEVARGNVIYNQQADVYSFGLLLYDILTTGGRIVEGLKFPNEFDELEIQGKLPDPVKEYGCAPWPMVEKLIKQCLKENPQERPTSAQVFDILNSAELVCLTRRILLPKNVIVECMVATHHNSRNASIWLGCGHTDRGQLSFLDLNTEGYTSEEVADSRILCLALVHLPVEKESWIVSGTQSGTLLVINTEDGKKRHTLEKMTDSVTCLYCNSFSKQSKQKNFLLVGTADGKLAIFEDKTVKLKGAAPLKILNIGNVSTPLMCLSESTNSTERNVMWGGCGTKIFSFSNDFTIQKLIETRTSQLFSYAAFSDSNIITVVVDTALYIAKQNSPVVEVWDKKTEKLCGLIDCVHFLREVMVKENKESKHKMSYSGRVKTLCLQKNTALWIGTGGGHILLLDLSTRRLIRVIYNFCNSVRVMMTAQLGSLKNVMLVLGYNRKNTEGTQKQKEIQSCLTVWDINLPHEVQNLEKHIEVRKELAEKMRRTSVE

B1: Prickle1-ECFP (natural protein, UniProt Q3U5C7 1-832, looked up)
chain: MPLEMEPKMSKLVFGCQRSSTSDDDSGCALEEYAWVPPGLRPEQIQLYFACLPEEKVPYVNSPGEKHRIKQLLYQLPPHDNEVRYCQSLSEEEKKELQVFSAQRKKEALGRGTIKLLSRAVMHAVCEQCGLQMNGGEVAVFASRAGPGVCWHPSCFVCFTCNELLVDLIYFYQDGKIHCGRHHAELLKPRCSACDEIIFADECTEAEGRHWHMKHFCCLECETVLGGQRYIMKDGRPFCCGCFESLYAEYCETCGEHIGVDHAQMTYDGQHWHATEACFSCAQCKASLLGCPFLPKQGQIYCSKTCSLGEDIHASDSSDSAFQSARSRDSRRSVRMGRSSRSADQCRQSLLLSPALNYKFPGLSGNADDTLSRKLDDVSLASRQGAGFANEEFWKARVEQEASEDPEEWAEHEDYMTQLLLKFGDKNLFQQQSSEVDPRASEHWIPDNMVTNKPEVKPNHQGLASKKYQSDMYWAQSQDGLGDSAYGSHPGPASSRRLQELDLDHGAAGYTHDQSQWYEDSLECLSDLKPEQSIRDSMDSLALSNITGASVDGESKPRPSLYSLQNFEEIEAEDCEKMSNMGTLNSSMLHRSAESLQSLNSGLCPEKILPEEKPAHLPVLRRSKSQSRPQQVKFSDDVIDNGSYDIEIRQPPMSERTRRRAYHFEERGSRPHHHRHRRSRKSRSDNALNLVTERKYSAKDRLRLYTPDNYEKFIQNKSARELQAYMQNANLYSQYAHATSDYALQNPGMNRFLGLCGEDDDSWCSSSTSSSDSEEEGYFLGQPIPQPRPQRFTYYTDDLSSPASALPTPQFTQRTTKSKKKKGHKGKNCIIS
- TOPFlash (WNT/β-catenin reporter) in HEK293T cells expressing DVL2, LRRK2 and PRICKLE1, fold of control (DVL2 with LRRK2 without PRICKLE1: ~130 fold): ~80 fold

Reference: paper PMC5505151, “A proteomic analysis of LRRK2 binding partners reveals interactions with multiple signaling components of the WNT/PCP pathway” (Molecular Neurodegeneration, 2017)
